The text below walks through data of patent US20240010696A1.

This test concerns the target mouse IL-12 receptor on cells (mouse) (UniProt Q60837). Put plainly: cell-based or functional assay.

mouse IL-12 receptor on cells (mouse), sequence (Q60837 20-738, chain 1 of 2): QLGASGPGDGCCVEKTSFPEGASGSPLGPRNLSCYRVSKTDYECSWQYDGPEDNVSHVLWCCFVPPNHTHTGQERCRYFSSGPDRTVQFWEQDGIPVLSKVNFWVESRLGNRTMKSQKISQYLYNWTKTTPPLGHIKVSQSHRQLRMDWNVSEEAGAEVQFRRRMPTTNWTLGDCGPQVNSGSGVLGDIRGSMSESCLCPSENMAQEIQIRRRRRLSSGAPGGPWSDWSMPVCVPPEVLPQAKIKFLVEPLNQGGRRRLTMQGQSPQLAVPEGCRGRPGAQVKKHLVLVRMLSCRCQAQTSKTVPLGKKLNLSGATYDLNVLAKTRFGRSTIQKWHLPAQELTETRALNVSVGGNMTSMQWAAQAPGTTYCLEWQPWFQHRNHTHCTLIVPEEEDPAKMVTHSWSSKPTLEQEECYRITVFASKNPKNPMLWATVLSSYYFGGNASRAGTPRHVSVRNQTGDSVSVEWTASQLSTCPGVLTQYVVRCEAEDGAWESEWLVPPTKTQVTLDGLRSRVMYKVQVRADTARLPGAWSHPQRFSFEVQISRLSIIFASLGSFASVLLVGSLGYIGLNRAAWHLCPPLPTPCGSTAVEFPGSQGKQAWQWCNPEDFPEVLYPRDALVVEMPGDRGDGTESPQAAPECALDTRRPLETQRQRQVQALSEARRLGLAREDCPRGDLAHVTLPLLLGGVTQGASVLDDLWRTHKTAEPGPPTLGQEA
mouse IL-12 receptor on cells (mouse), sequence (P97378 24-874, chain 2 of 2, further chain): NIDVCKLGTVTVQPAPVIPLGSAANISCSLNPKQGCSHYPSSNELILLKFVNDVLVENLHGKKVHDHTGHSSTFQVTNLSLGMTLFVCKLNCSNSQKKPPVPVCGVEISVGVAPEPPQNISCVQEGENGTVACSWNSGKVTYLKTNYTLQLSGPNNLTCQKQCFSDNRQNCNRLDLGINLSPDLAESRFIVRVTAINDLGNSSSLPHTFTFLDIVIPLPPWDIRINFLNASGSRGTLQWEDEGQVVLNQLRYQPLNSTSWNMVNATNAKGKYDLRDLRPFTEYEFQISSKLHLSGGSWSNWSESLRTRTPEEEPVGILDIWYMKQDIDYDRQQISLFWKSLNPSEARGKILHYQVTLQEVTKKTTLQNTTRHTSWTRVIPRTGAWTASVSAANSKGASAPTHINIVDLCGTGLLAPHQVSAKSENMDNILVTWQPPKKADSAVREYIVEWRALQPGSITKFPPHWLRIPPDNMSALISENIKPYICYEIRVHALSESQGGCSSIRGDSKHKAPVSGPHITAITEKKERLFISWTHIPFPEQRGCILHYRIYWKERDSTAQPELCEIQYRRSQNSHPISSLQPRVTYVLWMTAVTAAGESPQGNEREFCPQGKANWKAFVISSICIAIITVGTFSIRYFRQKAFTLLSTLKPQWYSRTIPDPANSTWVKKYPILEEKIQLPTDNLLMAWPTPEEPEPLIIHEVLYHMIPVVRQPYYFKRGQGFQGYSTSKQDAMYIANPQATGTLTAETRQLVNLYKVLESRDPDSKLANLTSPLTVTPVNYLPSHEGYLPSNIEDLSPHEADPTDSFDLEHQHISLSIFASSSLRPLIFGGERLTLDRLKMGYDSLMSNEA

B1: mIL12 mutein-isotype (mouse IL-12 mutein fused to a human isotype (IgG1) control antibody) (protein, part only; not given: isotype control antibody, part only)
chain: MWELEKDVYVVEVDWTPDAPGETVNLTCDTPEEDDITWTSDQRHGVIGSGKTLTITVKEFLDAGQYTCHKGGETLSHSHLLLHKKENGIWSTEILKNFKNKTFLKCEAPNYSGRFTCSWLVQRNMDLKFNIKSSSSSPDSRAVTCGMASLSAEKVTLDQRDYEKYSVSCQEDVTCPTAEETLPIELALEARQQNKYENYSTSFFIRDIIKPDPPKNLQMKPLKNSQVEVSWEYPDSWSTPHSYFSLKFFVGGGEKMKETEEGCNQKGAFLVEKTSTEVQCKGGNVCVQAQDRYYNSSCSKWACVPCRVRSGGGGGGSRVIPVSGPARCLSQSRNLLKTTDDMVKTAREKLEFYPCTAEDIDHEDITRDQTSTLKTCLPLELHKNESCLATRETSSTTRGSCLPPQKTSLMMTLCLGSIYEDLKMYQTEFQAINAALQNHNHQQIILDKGMLVAIDELMQSLNHNGETLRQKPPVGEADPYRVKMKLCILLHAFSTRVVTINRVMGYLSSA
For B1, the Reduction in pSTAT4 production of 2) mutein IL-12 fused to isotype mAb as compared to 1) wild-type IL12 fused to isotype mAb (activated mouse CD4 T cells, flow cytometry) was 23200 fold.
